Test results from the supplement of paper PMC9233669.
This sample holds only a part of the variants without activity.

Tests used:
biotinyl-Phe-oxazolone = test: self-aminoacylation, catalytic enhancement (BFO) (fold over background); higher = more active; k-Seq, kA / k0A0; sequences stand for … in GGGAAUGGAUCCACAUCUACGAAUUC…UUCACUGCAGACUUGACGAAGCUG
In short: (§1)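 Catalytic enhancement equals the median kA over the uncatalyzed rate, the latter read from the low-activity peak of a bimodal Gaussian fit. Values of kA came from fitting each sequence's fraction reacted to a pseudo-first-order model, with 1000 bootstraps. Reacted RNA was captured with streptavidin and quantified by triplicate qPCR and Illumina sequencing after 90 minutes at room temperature with 2–1250 μM biotinyl-aminoacyl-oxazolone and 0.43 μM mutagenized RNA pools bearing a 21-nt variable region.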

biotinyl-Leu-oxazolone = test: self-aminoacylation, catalytic enhancement (BLO) (fold over background); higher = more active; k-Seq, kA / k0A0; sequences stand for … in GGGAAUGGAUCCACAUCUACGAAUUC…UUCACUGCAGACUUGACGAAGCUG
In short: as §1

biotinyl-Trp-oxazolone = test: self-aminoacylation, catalytic enhancement (BWO) (fold over background); higher = more active; k-Seq, kA / k0A0; sequences stand for … in GGGAAUGGAUCCACAUCUACGAAUUC…UUCACUGCAGACUUGACGAAGCUG
In short: as §1

biotinyl-Val-oxazolone = test: self-aminoacylation, catalytic enhancement (BVO) (fold over background); higher = more active; k-Seq, kA / k0A0; sequences stand for … in GGGAAUGGAUCCACAUCUACGAAUUC…UUCACUGCAGACUUGACGAAGCUG
In short: as §1

biotinyl-Ile-oxazolone = test: self-aminoacylation, catalytic enhancement (BIO) (fold over background); higher = more active; k-Seq, kA / k0A0; sequences stand for … in GGGAAUGGAUCCACAUCUACGAAUUC…UUCACUGCAGACUUGACGAAGCUG
In short: as §1

biotinyl-Met-oxazolone = test: self-aminoacylation, catalytic enhancement (BMO) (fold over background); higher = more active; k-Seq, kA / k0A0; sequences stand for … in GGGAAUGGAUCCACAUCUACGAAUUC…UUCACUGCAGACUUGACGAAGCUG
In short: as §1

Sequence | self-aminoacylation (biotinyl-Phe-oxazolone) | self-aminoacylation (biotinyl-Leu-oxazolone) | self-aminoacylation (biotinyl-Trp-oxazolone) | self-aminoacylation (biotinyl-Val-oxazolone) | self-aminoacylation (biotinyl-Ile-oxazolone) | self-aminoacylation (biotinyl-Met-oxazolone)
AUUUACCUAGGUCAUUGGGUG [Fam2.2 aminoacylation ribozyme variant] | 19.7 | 3.79 | 3.11 | 2.26 | 2.34 | 3.54
AUUUACCUGGUCAUCGAGUGA [Fam2.1 aminoacylation ribozyme variant] | 8.89 | 7.77 | 8.91 | 4.29 | 4 | 7.97
AUUUACCUUGGUCAUCGGGUG [Fam2.2 aminoacylation ribozyme variant] | 45.7 | 8.83 | 6.6 | 4.81 | 4.48 | 7.16
AUUUACUUAGGUCAUCGGGUG [Fam2.2 aminoacylation ribozyme variant] | 32.2 | 5.78 | 4.45 | 3.18 | 2.91 | 4.85
AUUUAGCUAGGUCAUCGGGUG [Fam2.2 aminoacylation ribozyme variant] | 50.1 | 5.39 | 6.01 | 4 | 3.83 | 4.72
AUUUAUCUAGGUCAUCGGGUG [Fam2.2 aminoacylation ribozyme variant] | 20.1 | 4.97 | 4.3 | 2.45 | 3.08 | 3.91
AUUUCCAUGGUCAUCGAGUGA [Fam2.1 aminoacylation ribozyme variant] | 52.5 | 9.67 | 12 | 5.09 | 5.22 | 9.56
AUUUCCCGGGUCAUCGAGUGA [Fam2.1 aminoacylation ribozyme variant] | 45.6 | 6.51 | 6.24 | 3.93 | 3.37 | 5.43
AUUUCCCUAGUCAUCGAGUGA [Fam2.1 aminoacylation ribozyme variant] | 31.5 | 6.58 | 7.31 | 4.03 | 3.46 | 6.04
AUUUCCCUCGUCAUCGAGUGA [Fam2.1 aminoacylation ribozyme variant] | 21.2 | 3.93 | 4.57 | 2.6 | 2.5 | 3.39
AUUUCCCUGGUAAUCGAGUGA [Fam2.1 aminoacylation ribozyme variant] | 57.7 | 8.19 | 9.31 | 4.01 | 3.84 | 7.89
AUUUCCCUGGUCACCGAGUGA [Fam2.1 aminoacylation ribozyme variant] | 66.2 | 8.24 | 9.27 | 4.43 | 3.79 | 8.77
AUUUCCCUGGUCAUCCAGUGA [Fam2.1 aminoacylation ribozyme variant] | 55.4 | 8.35 | 9.93 | 4.5 | 4.3 | 7.52
AUUUCCCUGGUCAUCGAGAGA [Fam2.1 aminoacylation ribozyme variant] | 1.31 | 1.1 | 0.74 | 1.27 | 1.2 | 0.896
AUUUCCCUGGUCAUCGAGGGA [Fam2.1 aminoacylation ribozyme variant] | 1.28 | 1.83 | 1.65 | 1.59 | 1.47 | 1.44
AUUUCCCUGGUCAUCGAGUGG [Fam2.1 aminoacylation ribozyme variant] | 12 | 8.26 | 7.09 | 3.99 | 3.66 | 7.95
AUUUCCCUGGUCAUCGAGUGU [Fam2.1 aminoacylation ribozyme variant] | 26.8 | 14.6 | 12.4 | 7.71 | 6.35 | 14.9
AUUUCCCUGGUCAUCGCGUGA [Fam2.1 aminoacylation ribozyme variant] | 157 | 20.9 | 22.5 | 10.4 | 9.18 | 18.9
AUUUCCCUGGUCAUCGGGUGA [Fam2.1 aminoacylation ribozyme variant] | 90.8 | 21.5 | 23.9 | 11.6 | 10.1 | 18.5
AUUUCCCUGGUCCUCGAGUGA [Fam2.1 aminoacylation ribozyme variant] | 23.5 | 3.67 | 3.91 | 1.93 | 2.08 | 3.79
AUUUCCCUGGUUAUCGAGUGA [Fam2.1 aminoacylation ribozyme variant] | 58.2 | 8.65 | 10.9 | 4.39 | 4.12 | 9.01
AUUUUCCUGGUCAUCGAGUGA [Fam2.1 aminoacylation ribozyme variant] | 10.8 | 8.6 | 9.4 | 4.13 | 4.2 | 8.02
CAACACGUCAAGCAAUCGGUC [Fam1B.1 aminoacylation ribozyme variant] | 1.33 | 1.37 | 1.47 | 1.22 | 1.11 | 1.44
CAACACUACAAGCAAUCGGUC [Fam1B.1 aminoacylation ribozyme variant] | 0.958 | 0.914 | 0.713 | 1.01 | 0.955 | 0.956
CAACACUUAAAGCAAUCGGUC [Fam1B.1 aminoacylation ribozyme variant] | 0.828 | 0.82 | 0.79 | 0.909 | 1.12 | 0.98
CAACACUUCAACCAAUCGGUC [Fam1B.1 aminoacylation ribozyme variant] | 45.6 | 2.04 | 28.2 | 1.36 | 1.28 | 1.58

Sequence | self-aminoacylation (biotinyl-Phe-oxazolone) | self-aminoacylation (biotinyl-Leu-oxazolone) | self-aminoacylation (biotinyl-Trp-oxazolone) | self-aminoacylation (biotinyl-Val-oxazolone) | self-aminoacylation (biotinyl-Ile-oxazolone) | self-aminoacylation (biotinyl-Met-oxazolone)
CAACACUUCAAGCAAUCGGUG [Fam1B.1 aminoacylation ribozyme variant] | 4.92 | 4.86 | 3.87 | 2.73 | 3.09 | 4.13
CAACUUCAAACAAUCGGCCUG [Fam1A.1 aminoacylation ribozyme variant] | 283 | 6.75 | 107 | 2.92 | 3.08 | 4.11
CAACUUCAAUCAAUCGGUCUG [Fam1A.1 aminoacylation ribozyme variant] | 35.7 | 2.03 | 24 | 1.4 | 1.43 | 1.36
CAAUACUUCAAGCAAUCGGUC [Fam1B.1 aminoacylation ribozyme variant] | 9.23 | 0.986 | 5.14 | 0.912 | 0.907 | 0.799
CAGUUUGCUAACAGUCGCAAG [Fam3.1 aminoacylation ribozyme variant] | 2 | 1.6 | 1.32 | 1.16 | 1.31 | 1.83
CAGUUUGCUAAUAGACGCAAG [Fam3.1 aminoacylation ribozyme variant] | 1.08 | 0.895 | 1.61 | 0.858 | 0.91 | 0.814
CAGUUUGCUAAUAGUCGCAAG [Fam3.1 aminoacylation ribozyme variant] | 2.94 | 1.35 | 1.55 | 1.21 | 1.36 | 1.28
CAGUUUGCUAGUAGUCGCAAG [Fam3.1 aminoacylation ribozyme variant] | 1.19 | 1.25 | 1.37 | 1.04 | 0.938 | 0.827
CAGUUUGGUAAUAGUCGCAAG [Fam3.1 aminoacylation ribozyme variant] | 2.57 | 1.73 | 1.97 | 1.67 | 1.85 | 1.73
CAUCACCUAGGUCAUCGGGUG [Fam2.2 aminoacylation ribozyme variant] | 21 | 6.23 | 5.76 | 4.05 | 3.15 | 6.18
CCAAACUUCAAGCAAUAGGUC [Fam1B.1 aminoacylation ribozyme variant] | 0.911 | 0.527 | 0.458 | 0.602 | 0.605 | 0.574
CCAAACUUCAAGCAAUCGGAC [Fam1B.1 aminoacylation ribozyme variant] | 1.14 | 0.789 | 0.602 | 1.1 | 0.912 | 0.662
CCAAACUUCAAGCAAUCGGUG [Fam1B.1 aminoacylation ribozyme variant] | 32.4 | 8.21 | 6.12 | 4.43 | 4.67 | 5.65
CCAAACUUCAAGCAAUCGUUC [Fam1B.1 aminoacylation ribozyme variant] | 0.813 | 0.621 | 0.803 | 0.93 | 0.743 | 0.66
CCAAACUUCAAUCAAUCGGUC [Fam1B.1 aminoacylation ribozyme variant] | 36.8 | 1.73 | 23.5 | 1.28 | 1.29 | 1.43
CCAAACUUGAAGCAAUCGGUC [Fam1B.1 aminoacylation ribozyme variant] | 0.596 | 0.828 | 0.693 | 0.996 | 0.898 | 0.87
CCAAAGUUCAAGCAAUCGGUC [Fam1B.1 aminoacylation ribozyme variant] | 1.35 | 1.28 | 1.17 | 1.4 | 1.35 | 1.32
CCAAUUCAAACAAUCGGUCUG [Fam1A.1 aminoacylation ribozyme variant] | 6.78 | 1.16 | 5.22 | 1.11 | 1.11 | 1.02
CCACAAGUCAAGCAAUCGGUC [Fam1B.1 aminoacylation ribozyme variant] | 1.15 | 1.49 | 1.32 | 1.54 | 1.64 | 1.67
CCACAAUUCAAGCAAUCGGAC [Fam1B.1 aminoacylation ribozyme variant] | 0.942 | 0.884 | 0.711 | 0.798 | 1.15 | 0.783
CCACAAUUCAAGCAAUCGGUC [Fam1B.1 aminoacylation ribozyme variant] | 2.8 | 0.973 | 1.69 | 1.16 | 1.17 | 0.936
CCACAAUUCAAGCAGUCGGUC [Fam1B.1 aminoacylation ribozyme variant] | 1.06 | 1.17 | 0.925 | 1.22 | 1.36 | 1.11
CCACAAUUCAAGCAUUCGGUC [Fam1B.1 aminoacylation ribozyme variant] | 1.36 | 1.94 | 1.36 | 1.85 | 1.96 | 1.68
CCACAAUUCGAGCAAUCGGUC [Fam1B.1 aminoacylation ribozyme variant] | 0.736 | 1.07 | 1.08 | 1.58 | 1.28 | 0.985
CCACACAUCAAACAAUCGGUC [Fam1B.1 aminoacylation ribozyme variant] | 3.04 | 0.749 | 1.92 | 0.92 | 0.795 | 0.715
